Where a chain is given by its changes, count along the chain named. Names and notes keep the numbering of the source. Read-outs that look alike come from different tables or passages of the source. Each block holds one binder with its values, some of them ahead of it.
Legend:
Assay in all cases: cell-based or functional assay
[1] = target: T1, recombinant human BAFF (BioLegend) (human, UniProt Q9Y275 134-285)
[2] = target: T2, recombinant human APRIL (Tonbo Biosciences) (human, UniProt O75888 105-250, limits assumed)
T2 sequence (looked up): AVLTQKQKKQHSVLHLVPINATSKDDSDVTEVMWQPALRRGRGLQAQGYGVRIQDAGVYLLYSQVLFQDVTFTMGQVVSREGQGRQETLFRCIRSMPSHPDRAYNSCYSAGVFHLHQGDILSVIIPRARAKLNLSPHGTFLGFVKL

[3] = target: T1, recombinant human BAFF (BioLegend); remark: listed apart in the source
[4] = target: T1, recombinant human BAFF (BioLegend); remark: listed apart in the source
[5] = target: T2, recombinant human APRIL (Tonbo …); remark: listed apart in the source
[6] = target: T1, recombinant human BAFF (BioLegend); remark: listed apart in the source
[7] = target: T2, recombinant human APRIL (Tonbo …); remark: listed apart in the source
[8] = target: T1, recombinant human BAFF (BioLegend); remark: listed apart in the source
[9] = target: T2, recombinant human APRIL (Tonbo …); remark: listed apart in the source
[10] = target: T3, recombinant mouse APRIL (ProSci Incorporated) (mouse, UniProt Q9D777 96-241, limits assumed)
T3 sequence (looked up): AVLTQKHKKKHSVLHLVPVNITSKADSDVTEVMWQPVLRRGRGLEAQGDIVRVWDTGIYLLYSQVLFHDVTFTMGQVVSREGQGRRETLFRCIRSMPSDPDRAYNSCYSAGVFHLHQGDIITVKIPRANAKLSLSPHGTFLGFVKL

[11] = target: T4, recombinant mouse BAFF (R & D Systems) (mouse, UniProt Q9WU72 127-309)
T4 sequence (Q9WU72 127-309 limits assumed): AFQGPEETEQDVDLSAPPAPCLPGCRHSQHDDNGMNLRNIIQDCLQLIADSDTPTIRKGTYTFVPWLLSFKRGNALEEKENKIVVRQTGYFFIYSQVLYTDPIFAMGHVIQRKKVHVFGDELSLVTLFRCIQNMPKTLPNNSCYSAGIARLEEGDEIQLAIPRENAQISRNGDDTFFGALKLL

[12] = target: T1, recombinant human BAFF (BioLegend); remark: listed apart in the source
cynomolgus monkey APRIL = cynomolgus monkey APRIL (cynomolgus monkey)
rat APRIL = target: T5, rat APRIL (rat, UniProt A0A8J8XC20 96-241)
T5 sequence: T3 sequence (looked up) with H11Q, V19I, V29M, V37A, I50T, W54R, R94K

rat BAFF = rat BAFF (rat)
cynomolgus monkey BAFF = cynomolgus monkey BAFF (cynomolgus monkey, UniProt A0A2K5V2X4 134-285)
[13] = target: T2, recombinant human APRIL (Tonbo …); remark: listed apart in the source
[14] = target: T1, recombinant human BAFF (BioLegend); remark: listed apart in the source
[15] = target: T2, recombinant human APRIL (Tonbo …); remark: listed apart in the source
[16] = target: T1, recombinant human BAFF (BioLegend); remark: listed apart in the source
[17] = target: T2, recombinant human APRIL (Tonbo …); remark: listed apart in the source
[18] = target: T4, recombinant mouse BAFF (R & D Systems); remark: listed apart in the source
[19] = target: T3, recombinant mouse APRIL (ProSci …); remark: listed apart in the source

- IC50 (read off the curve) [1]: ~2 nM
- IC50 (read off the curve) [2]: ~3 nM
B1: 7 TACI CRD1/CRD2-Fc (Fc fusion)
TACI vTD-linker-Fc chain: VAMRSCPEEQYWDPLLGTCMSCKTICNHQSQRTCAAFCRSLSCRKEQGKFYDHLLRDCISCASICGQHPKQCDYFCENKLRSGSGGGGSEPKSSDKTHTCPPCPAPEAEGAPSVFLFPPKPKDTLMISRTPEVTCVVVDVSHEDPEVKFNWYVDGVEVHNAKTKPREEQYNSTYRVVSVLTVLHQDWLNGKEYKCKVSNKALPAPIEKTISKAKGQPREPQVYTLPPSRDELTKNQVSLTCLVKGFYPSDIAVEWESNGQPENNYKTTPPVLDSDGSFFLYSKLTVDKSRWQQGNVFSCSVMHEALHNHYTQKSLSLSPG

- IC50 value [3]: 0.078 mg/L
- IC50 (nM) BAFF [4]: 1220 nM
- IC50 BAFF (Δ TACI 30-110-Fc) [4]: 0.21 ratio
- IC50 (nM) APRIL [5]: 179 nM
- IC50 APRIL (Δ TACI 30-110-Fc) [5]: 0.05 ratio
- IC50 (nM) BAFF [6]: 1270 nM
- IC50 BAFF (Δ TACI 30-110) [6]: 0.28 ratio
- IC50 (nM) APRIL [7]: 214 nM
- IC50 APRIL (Δ TACI 30-110) [7]: 0.05 ratio
- BAFF IC50 (pM) [8]: 1550 pM
- BAFF IC50 (Δ WT) [8]: 0.84 ratio
- APRIL IC50 (pM) [9]: 9210 pM
- APRIL IC50 (Δ WT) [9]: 0.75 ratio
- APRIL IC50 (nM), signal inhibition in Jurkat/NF-κB/TACI cells [10]: 24.5 nM
- BAFF IC50 (nM), signal inhibition in Jurkat/NF-κB/TACI cells [11]: 15.2 nM
- BAFF IC50 (nM), signal inhibition in Jurkat/NF-κB/TACI cells [12]: 2.8 nM
- APRIL IC50 (nM), signal inhibition in Jurkat/NF-κB/TACI cells (cynomolgus monkey APRIL): 3.3 nM
- APRIL IC50 (nM), signal inhibition in Jurkat/NF-κB/TACI cells (rat APRIL): 22.7 nM
- BAFF IC50 (nM), signal inhibition in Jurkat/NF-κB/TACI cells (rat BAFF): 3.8 nM
- BAFF IC50 (nM), signal inhibition in Jurkat/NF-κB/TACI cells (cynomolgus monkey BAFF): 1.9 nM
- APRIL IC50 (nM), signal inhibition in Jurkat/NF-κB/TACI cells [13]: 3.4 nM
- IC50 (pM) BAFF [14]: 1340 pM
- IC50 (pM) APRIL [15]: 1760 pM
- IC50 (read off the curve) [16]: ~2 nM
- IC50 (read off the curve) [17]: ~0.6 nM
- IC50 (read off the curve) [18]: ~1 nM
B2: 26 TACI CRD2-Fc (TACI vTD SEQ ID NO:26, K77E/F78Y/Y102D; Fc fusion SEQ ID NO: 167) (Fc fusion)
chain: SLSCRKEQGEYYDHLLRDCISCASICGQHPKQCADFCENKLRSGSGGGGSEPKSSDKTHTCPPCPAPEAEGAPSVFLFPPKPKDTLMISRTPEVTCVVVDVSHEDPEVKFNWYVDGVEVHNAKTKPREEQYNSTYRVVSVLTVLHQDWLNGKEYKCKVSNKALPAPIEKTISKAKGQPREPQVYTLPPSRDELTKNQVSLTCLVKGFYPSDIAVEWESNGQPENNYKTTPPVLDSDGSFFLYSKLTVDKSRWQQGNVFSCSVMHEALHNHYTQKSLSLSPG

- IC50 (read off the curve) [1]: ~2 nM
- IC50 (nM) BAFF [4]: 1330 nM
- IC50 BAFF (Δ TACI 30-110-Fc) [4]: 0.23 ratio
- IC50 (nM) APRIL [5]: 369 nM
- IC50 APRIL (Δ TACI 30-110-Fc) [5]: 0.1 ratio
- BAFF IC50 (pM) [8]: 1850 pM
- BAFF IC50 (Δ WT) [8]: 1 ratio
- APRIL IC50 (pM) [9]: 12300 pM
- APRIL IC50 (Δ WT) [9]: 1 ratio
- IC50 (read off the curve) [16]: ~3 nM
- IC50 (read off the curve) [19]: ~0.7 nM
- IC50 (read off the curve) [18]: ~5 nM
B3: 13 TACI CRD2-Fc, WT TACI (68-110)-Fc (TACI 68-110, SEQ ID NO: 13, TACI-Fc SEQ ID NO: 171) (Fc fusion)
chain: B2 chain with E10K, Y11F, D35Y
